This experiment has as its target T1, gp41 HR1 fragment, Ala541 to Leu581 (chain of gp41_(541–665)) (HIV-1 HXB2 group M subtype B, UniProt P04578 541-581).
T1 construct: HIV-1 HXB2 (group M subtype B) envelope glycoprotein, gp41 subunit, residues Ala541 to Leu581 (heptad repeat 1); also called core fragment HR1; source: E. coli Rosetta (DE3), fusion protein; pellets of HR1 and HR2 expressing bacteria mixed before lysis; complex purified (amylose, TEV digestion, Ni2+, anion exchange, SEC); not shown: Flag-tag (DDDDK), N-terminal, kept
In words: SEC; purified complexes on a Superdex 200 (S200) column in buffer A (0.02 M Tris pH 8.0, 0.1 M NaCl); SDS-PAGE of the peak; the complexes were assembled by mixing bacteria before lysis and co-purified. The note with it: both partners purified.

T1 sequence (P04578 541-581): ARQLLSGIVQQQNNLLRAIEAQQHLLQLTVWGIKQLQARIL

B1: gp41 HR2 fragment, Met628 to Lys665 as printed (chain of gp41_(541–665)) (domain or fragment)
chain: MEWDREINNYTSLIHSLIEESQNQQEKNEQELLELDK
notes: HIV-1 HXB2 (group M subtype B) envelope glycoprotein, gp41 subunit, heptad repeat 2; also called core fragment HR2; source: E. coli Rosetta (DE3), fusion protein; pellets of HR1 and HR2 expressing bacteria mixed before lysis (HR2 in excess); complex purified (amylose, TEV digestion, Ni2+, anion exchange, SEC); not shown: Flag-tag (DDDDK), N-terminal, kept
For the molecule B1, the binding result is listed as “binds”.

(Values after PMC2865522, “Crystal Structure of HIV-1 gp41 Including Both Fusion Peptide and Membrane Proximal External Regions” (PLoS Pathogens, 2010).)
